Test results reported in patent US20250339570A1.

Molecular target: CD46 (UniProt P15529)
Experiment: magnetic bead radioligand binding assay; CD46 on Ni-NTA beads, 10 ng radioimmunoconjugate, bead activity/standard

target binding fraction	Substance
> 75%	225Ac-Macropa-PEG0-YS5 (antibody)
> 75%	225Ac-Macropa-PEG4-YS5 (antibody)
> 75%	225Ac-Macropa-PEG8-YS5 (antibody)
